Blank lines part the entries; values can stand above or below the binder they belong to. Numbered stars: 1 amine (or outer) side, 2 acyl side, 3 side chain; on linkers, the order of the positions; unused ones are H or OH. Bridge positions count the residues as written; N and C are the ends. Square brackets hold non-standard residues; d marks the D form. Ends that are not written are not given here. ThiAz = 3-(1,2,4-triazol-1-yl)-alanine, O=C([C@H](Cn1cncn1)N[*:1])[*:2]; Ala(2-furyl) = N[C@@H](Cc1ccco1)C(=O)O; 1Nal = N[C@@H](Cc1cccc2ccccc12)C(=O)O; TBMB = c1c(C[*:1])cc(C[*:3])cc1C[*:2]; hArg = N=C(N)NCCCC[C@H](N)C(=O)O; Tle = CC(C)(C)[C@H](N)C(=O)O; Pip = O=C(O)[C@@H]1CCCCN1; Aze = O=C(O)[C@@H]1CCN1; Aib = CC(C)(N)C(=O)O; azaGly = NNC(=O)O; βAla = NCCC(=O)O; Sar = CNCC(=O)O
Legend:
Human EphA2 (Ecto) [1] = molecular target: T1, Human EphA2 (Ecto) (Human, UniProt P29317 24-537); assay: FP competition; competitor Compound 18
T1 construct: extracellular domain
Method: (§1) Peptides without a fluorescent tag were tested in competition with a peptide with a fluorescent tag and a known Kd (Table 2). Peptides were diluted to an appropriate concentration in assay buffer as described in the direct binding assay with a maximum of 5% DMSO, then serially diluted 1 in 2. Five μL of diluted peptide was added to the plate followed by 10 μL of human or mouse EphA2 (Table 1) at a fixed concentration which was dependent on the fluorescent peptide used (Table 2), then 10 μL fluorescent peptide added. Measurements were conducted as for the direct binding assay, however the gain was determined prior to the first measurement.

Human EphA2 (Ecto) [2] = molecular target: T1, Human EphA2 (Ecto); assay: FP competition; competitor Compound 66
Method: as §1

T1 sequence (P29317 24-537): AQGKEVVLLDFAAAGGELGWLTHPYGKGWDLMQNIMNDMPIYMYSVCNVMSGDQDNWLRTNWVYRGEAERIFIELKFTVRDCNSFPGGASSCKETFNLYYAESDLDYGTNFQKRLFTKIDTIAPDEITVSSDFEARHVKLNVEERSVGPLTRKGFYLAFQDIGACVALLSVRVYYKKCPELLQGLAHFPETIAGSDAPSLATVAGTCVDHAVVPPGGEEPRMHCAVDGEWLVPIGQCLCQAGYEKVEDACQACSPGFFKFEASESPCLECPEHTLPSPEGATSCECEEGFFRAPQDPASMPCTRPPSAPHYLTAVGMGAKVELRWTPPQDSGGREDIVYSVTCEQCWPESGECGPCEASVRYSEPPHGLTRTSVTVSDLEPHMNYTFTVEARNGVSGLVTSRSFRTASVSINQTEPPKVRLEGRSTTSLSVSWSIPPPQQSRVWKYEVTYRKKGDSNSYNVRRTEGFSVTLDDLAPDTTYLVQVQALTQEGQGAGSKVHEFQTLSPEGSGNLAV

B1: Compound 271 (peptide)
peptide: [βAla][Sar][Sar][Sar][Sar][Sar][Sar][Sar][Sar][Sar][Sar]H[dD]VPCPWG[Aib]FWCP[Tle]N[hArg]P[dD]C
modifications: linker 16-23-30 via TBMB
- Ki (Human EphA2 (Ecto) [1]): 3.66 nM

B3: Compound 204 (peptide)
peptide: Ac-[Sar][Sar]A[dH]D[Tle]PCPWGPFWCPVNRPGC
modifications: linker 8-15-22 via TBMB
- Ki (Human EphA2 (Ecto) [1]): 2.15 nM

B4: Compound 212 (peptide)
peptide: Ac-[Sar][Sar]AH[dD]V[Sar]CPWGPFWCPVNRPGC
modifications: linker 8-15-22 via TBMB
- Ki (Human EphA2 (Ecto) [1]): 4.95 nM

B6: Compound 91 (peptide)
peptide: [Sar][Sar]ACPWGPYWCPVNRPGC
modifications: linker 4-11-18 via TBMB
- Ki (Human EphA2 (Ecto) [2]): 138 nM

B9: Compound 105 (peptide)
peptide: [Sar][Sar]ACPWGPFWCPVNR[dA]GC
modifications: linker 4-11-18 via TBMB
- Ki (Human EphA2 (Ecto) [2]): 471 nM

B11: Compound 233 (peptide)
peptide: Ac-[Sar][Sar]A[dH]DVPCPWG[Aib]FWCP[Tle]NR[Aib]GC
modifications: linker 8-15-22 via TBMB
- Ki (Human EphA2 (Ecto) [1]): 4.8 nM

B12: Compound 216 (peptide)
peptide: [Sar][Sar]AHD[Aib]PCPWGPFWCPVNRPGC
modifications: linker 8-15-22 via TBMB
- Ki (Human EphA2 (Ecto) [1]): 2.77 nM

B15: Compound 206 (peptide)
peptide: [Sar][Sar]AH[dA]VPCPWGPFWCPVNRPGC
modifications: linker 8-15-22 via TBMB
- Ki (Human EphA2 (Ecto) [1]): 8.3 nM

B16: Compound 215 (peptide)
peptide: [Sar][Sar]AHD[dA]PCPWGPFWCPVNRPGC
modifications: linker 8-15-22 via TBMB
- Ki (Human EphA2 (Ecto) [1]): 26 nM

B18: Compound 208 (peptide)
peptide: [Sar][Sar]AH[dE]VPCPWGPFWCPVNRPGC
modifications: linker 8-15-22 via TBMB
- Ki (Human EphA2 (Ecto) [1]): 2 nM

B19: Compound 221 (peptide)
peptide: [Sar][Sar]AHDV[Aze]CPWGPFWCPVNRPGC
modifications: linker 8-15-22 via TBMB
- Ki (Human EphA2 (Ecto) [1]): 3.1 nM

B22: Compound 33 (peptide)
peptide: ACRVSPEYCPFGPVWCA
modifications: linker 2-9-16 via TBMB
- Ki (Human EphA2 (Ecto) [2]): 78.5 nM

B23: Compound 37 (peptide)
peptide: ACRVSPEYCPFGPEWCA
modifications: linker 2-9-16 via TBMB
- Ki (Human EphA2 (Ecto) [2]): 61.2 nM

B24: Compound 36 (peptide)
peptide: ACRVSPEYCPFGPSWCA
modifications: linker 2-9-16 via TBMB
- Ki (Human EphA2 (Ecto) [2]): 40.5 nM

B25: Compound 38 (peptide)
peptide: ACRVSPEYCPFGPYWCA
modifications: linker 2-9-16 via TBMB
- Ki (Human EphA2 (Ecto) [2]): 26.5 nM

B26: Compound 24 (peptide)
peptide: ACMNDWLCSLGWTCA
modifications: linker 2-8-14 via TBMB
- Ki (Human EphA2 (Ecto) [2]): 82.3 nM

B27: Compound 30 (peptide)
peptide: ACMNDWLCQLGWTCA
modifications: linker 2-8-14 via TBMB
- Ki (Human EphA2 (Ecto) [2]): 56 nM

B28: Compound 222 (peptide)
peptide: [Sar][Sar]AHDV[Pip]CPWGPFWCPVNRPGC
modifications: linker 8-15-22 via TBMB
- Ki (Human EphA2 (Ecto) [1]): 3.4 nM

B30: Compound 53 (peptide)
peptide: AGEMACPWGPFWCPVNRPGCA
modifications: linker 6-13-20 via TBMB
- Ki (Human EphA2 (Ecto) [1]): 12.3 nM

B34: Compound 284 (peptide)
peptide: Ac-[Sar][Sar]A[dD]DVTCP[1Nal]G[Aib]FWCP[Tle]N[hArg]PGC
modifications: linker 8-15-22 via TBMB
- Ki (Human EphA2 (Ecto) [1]): 3.8 nM

B35: Compound 229 (peptide)
peptide: Ac-[Sar][Sar]A[dH]DVPCPWGPFWCP[hArg]NRPGC
modifications: linker 8-15-22 via TBMB
- Ki (Human EphA2 (Ecto) [1]): 5.1 nM

B39: Compound 46 (peptide)
peptide: ACPWGPMWCPVNRPGCA
modifications: linker 2-9-16 via TBMB
- Ki (Human EphA2 (Ecto) [2]): 95.8 nM

B42: Compound 219 (peptide)
peptide: [Sar][Sar]AHDV[dA]CPWGPFWCPVNRPGC
modifications: linker 8-15-22 via TBMB
- Ki (Human EphA2 (Ecto) [1]): 15 nM

B44: Compound 272 (peptide)
peptide: [βAla][Sar][Sar][Sar][Sar][Sar][Sar][Sar][Sar][Sar][Sar]H[dD]VPCPWGP[hArg]WCP[Tle]N[hArg]P[dD]C
modifications: linker 16-23-30 via TBMB
- Ki (Human EphA2 (Ecto) [1]): 3.99 nM

B46: Compound 211 (peptide)
peptide: Ac-[Sar][Sar]AH[dD][Tle]PCPWGPFWCPVNRPGC
modifications: linker 8-15-22 via TBMB
- Ki (Human EphA2 (Ecto) [1]): 3.1 nM

Continued by falling Ki (Human EphA2 (Ecto) [1]), values first:

- Ki (Human EphA2 (Ecto) [1]): 1.9 nM
B20: Compound 213 (peptide)
peptide: Ac-[Sar][Sar]AH[dD]V[Aib]CPWGPFWCPVNRPGC
modifications: linker 8-15-22 via TBMB

- Ki (Human EphA2 (Ecto) [1]): 1.8 nM
B31: Compound 230 (peptide)
peptide: Ac-[Sar][Sar]A[dH]DVPCP[1Nal]GPFWCP[Tle]N[hArg]PGC
modifications: linker 8-15-22 via TBMB

- Ki (Human EphA2 (Ecto) [1]): 1.6 nM
B33: Compound 266 (peptide)
peptide: Ac-[Sar][Sar]H[dD]VPCP[1Nal]G[Aib]FWCPVNR[Aib]GC
modifications: linker 7-14-21 via TBMB

- Ki (Human EphA2 (Ecto) [1]): 1.52 nM
B5: Compound 270 (peptide)
peptide: Ac-[Sar][Sar]H[dD]VPCPWG[Aib]FWCP[Tle]NR[Aib]GC
modifications: linker 7-14-21 via TBMB

- Ki (Human EphA2 (Ecto) [1]): 1.29 nM
B36: Compound 223 (peptide)
peptide: [βAla][Sar][Sar][Sar][Sar][Sar][Sar][Sar][Sar][Sar][Sar]HDVPCPWGPFWCPVNRPGC
modifications: linker 16-23-30 via TBMB

- Ki (Human EphA2 (Ecto) [1]): 1.25 nM
B8: Compound 209 (peptide)
peptide: [Sar][Sar]AH[dD]VPCPWGPFWCPVNRPGC
modifications: linker 8-15-22 via TBMB

- Ki (Human EphA2 (Ecto) [1]): 1.24 nM
B37: Compound 268 (peptide)
peptide: Ac-[Sar][Sar]H[dD]VPCPWG[Aib]F[1Nal]CPVNR[Aib]GC
modifications: linker 7-14-21 via TBMB

- Ki (Human EphA2 (Ecto) [1]): 1.1 nM
B17: Compound 210 (peptide)
peptide: Ac-[Sar][Sar]AH[dD]VPCPWGPFWCPVNRPGC
modifications: linker 8-15-22 via TBMB

- Ki (Human EphA2 (Ecto) [1]): 1.09 nM
B21: Compound 224 (peptide)
peptide: Ac-[Sar][Sar][dH]DVPCPWGPFWCPVNRPGC
modifications: linker 7-14-21 via TBMB

- Ki (Human EphA2 (Ecto) [1]): 0.87 nM
B13: Compound 282 (peptide)
peptide: Ac-[Sar][Sar]A[dD]DVTCP[1Nal]GPFWCPVNRPGC
modifications: linker 8-15-22 via TBMB

- Ki (Human EphA2 (Ecto) [1]): 0.84 nM
B38: Compound 226 (peptide)
peptide: [βAla][Sar][Sar][Sar][Sar][Sar][Sar][Sar][Sar][Sar][Sar]H[dD]VPCPWGPFWCPVNRPGC
modifications: linker 16-23-30 via TBMB

- Ki (Human EphA2 (Ecto) [1]): 0.83 nM
B14: Compound 220 (peptide)
peptide: [Sar][Sar]AHDV[Aib]CPWGPFWCPVNRPGC
modifications: linker 8-15-22 via TBMB

- Ki (Human EphA2 (Ecto) [1]): 0.75 nM
B43: Compound 227 (peptide)
peptide: Ac-[Sar][Sar]AH[dD]VPCP[1Nal]GPFWCP[Tle]N[hArg]PGC
modifications: linker 8-15-22 via TBMB

- Ki (Human EphA2 (Ecto) [1]): 0.7 nM
B7: Compound 202 (peptide)
peptide: [Sar][Sar]A[ThiAz]DVPCPWGPFWCPVNRPGC
modifications: linker 8-15-22 via TBMB

- Ki (Human EphA2 (Ecto) [1]): 0.66 nM
B45: Compound 267 (peptide)
peptide: Ac-[Sar][Sar]H[dD]VPCPW[azaGly]PFWCPVNRPGC
modifications: linker 7-14-21 via TBMB

- Ki (Human EphA2 (Ecto) [1]): 0.63 nM
B40: Compound 261 (peptide)
peptide: Ac-[Sar][Sar]H[dD]VPCP[1Nal]G[Aib]F[1Nal]CPVNR[Aib]GC
modifications: linker 7-14-21 via TBMB

- Ki (Human EphA2 (Ecto) [1]): 0.54 nM
B29: Compound 59 (peptide)
peptide: AHDVPCPWGPFWCPVNRPGCA
modifications: linker 6-13-20 via TBMB

- Ki (Human EphA2 (Ecto) [1]): 0.49 nM
B10: Compound 203 (peptide)
peptide: [Sar][Sar]A[Ala(2-furyl)]DVPCPWGPFWCPVNRPGC
modifications: linker 8-15-22 via TBMB

- Ki (Human EphA2 (Ecto) [1]): 0.49 nM
B32: Compound 217 (peptide)
peptide: [Sar][Sar]AHD[Tle]PCPWGPFWCPVNRPGC
modifications: linker 8-15-22 via TBMB

- Ki (Human EphA2 (Ecto) [1]): 0.37 nM
B2: Compound 252 (peptide)
peptide: [βAla][Sar][Sar][Sar][Sar][Sar][Sar][Sar][Sar][Sar][Sar]H[dD]VPCP[1Nal]G[Aib]F[1Nal]CP[Tle]NRPGC
modifications: linker 16-23-30 via TBMB

- Ki (Human EphA2 (Ecto) [1]): 0.28 nM
B41: Compound 283 (peptide)
peptide: Ac-[Sar][Sar]A[dD]DVTCP[1Nal]GPF[1Nal]CPVNRPGC
modifications: linker 8-15-22 via TBMB
